Values quoted from earlier work, collected in article PMC6275225.

Molecular target: LFA-3 (Homo sapiens) (UniProt P19256)
UniProt P19256, sequence (P19256 29-215): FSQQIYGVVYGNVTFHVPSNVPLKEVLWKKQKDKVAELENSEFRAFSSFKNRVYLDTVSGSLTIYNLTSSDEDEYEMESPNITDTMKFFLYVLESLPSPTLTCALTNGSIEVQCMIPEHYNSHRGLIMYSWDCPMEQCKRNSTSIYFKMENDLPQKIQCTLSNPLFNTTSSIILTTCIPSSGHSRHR

Substance: CD2 (from UniProt P06729)
- Kd: 15 µM
